Molecular target: recombinant lamprey tumor necrosis factor receptor (rL-TNFR) (lamprey)
Test: SPR

B1: recombinant Lr-PGRN-S1 (Lethenteron reissneri short-form progranulin S1) (natural protein)
chain: MGAVFSLGLSKEAIAMALPRPLMFVLVAAGLCALVSADRCPDGRFCVSRCCWKFTQYTCCWAGEGEGQGETQGELATVPAQAISATVSKVSSCAGSVCSANGESRCCPLSEGSCCGDGLSCCGKGSTCTTFRGLNLCLPHAEFQDPVATFLSREQQQHQQGGCVDDSGCPAGSECHVASGDHRGQCVSSDALIPWVEKEAALSGAVGAQVVYCGSGQYCRDGQTCCRLATGSWGCCNIPHAICCSDGIHCCPTGHFCLTASGLCARSTLSLPAVEGV
B1 showed a Kd of 337 nM.
